Experimental findings from publication PMC4220489 (Nature Communications, 2014) are described below.

As a reminder, the koff is the first-order rate constant of dissociation. One may read the stoichiometry N as a count of units in the complex or per binding partner.

Assay [1] has as its target T1, IL-12 subunit beta (p40), as in the recombinant human IL-23 of the crystal structure (human, UniProt P29460 23-328, C-mannosylated Trp319; N-linked glycans limited by kifunensine and trimmed with EndoH).
T1 construct: signal peptide in the construct; IL-12 subunit beta (p40), human, residues 1-328, cDNA as NCBI NM_002187.2 (silent codon change at Asn248); The p40 chain of m3, written alone for the pairs of the crystal structure; also called IL-23 p40; source: HEK-293T, co-transfected with p19-His, purified as IL-23 (Talon IMAC, SEC)
T1 sequence (looked up): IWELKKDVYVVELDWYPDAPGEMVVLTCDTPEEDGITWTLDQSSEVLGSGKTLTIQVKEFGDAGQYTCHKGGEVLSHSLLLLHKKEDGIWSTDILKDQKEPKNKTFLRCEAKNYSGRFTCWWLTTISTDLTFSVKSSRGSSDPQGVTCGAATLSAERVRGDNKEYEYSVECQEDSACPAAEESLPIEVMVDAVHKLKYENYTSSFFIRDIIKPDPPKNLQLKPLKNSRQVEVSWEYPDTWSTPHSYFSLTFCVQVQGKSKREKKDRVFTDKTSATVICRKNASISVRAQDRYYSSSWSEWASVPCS
Kind of assay: crystal structure; IL-23:MA12_B2fC complex, two crystal forms (PEG 3,350 with Na2SO4 or potassium formate), molecular replacement with PDB 3DUH. As to conditions: both partners purified.

For assay [2], the target named is T2, recombinant human IL-23 (p19-His co-expressed with p40 in HEK-293T) (human, UniProt Q9NPF7 20-189; P29460 23-328, N-linked glycans limited by kifunensine and trimmed with EndoH | C-mannosylated Trp319; N-linked glycans limited by kifunensine and trimmed with EndoH).
T2 chain 1: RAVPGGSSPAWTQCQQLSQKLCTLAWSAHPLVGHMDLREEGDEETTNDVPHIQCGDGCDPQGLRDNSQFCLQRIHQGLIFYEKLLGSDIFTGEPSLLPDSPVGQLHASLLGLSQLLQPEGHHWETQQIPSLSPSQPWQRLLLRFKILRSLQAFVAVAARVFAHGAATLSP
T2 chain 2: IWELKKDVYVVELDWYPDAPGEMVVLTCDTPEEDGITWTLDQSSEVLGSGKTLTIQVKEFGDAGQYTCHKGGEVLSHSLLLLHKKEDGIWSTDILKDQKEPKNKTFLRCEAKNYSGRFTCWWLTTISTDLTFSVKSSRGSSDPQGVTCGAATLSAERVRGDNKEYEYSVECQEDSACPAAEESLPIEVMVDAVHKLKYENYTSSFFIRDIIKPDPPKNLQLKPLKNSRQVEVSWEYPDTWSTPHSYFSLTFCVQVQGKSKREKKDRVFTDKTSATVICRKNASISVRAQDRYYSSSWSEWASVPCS
The assay is described as follows: SPR.

The target of assay [3] is T2, recombinant human IL-23 (p19-His …). The assay is described as follows: SPR. In general terms: Surface plasmon resonance follows binding to a sensor surface in real time, without labels.
The target in assay [4] is recombinant human IL-23 (p19-His co-expressed with p40 in HEK-293T) (human) (UniProt Q9NPF7). Kind of assay: ITC; VP-ITC, 30 °C, 20 mM Hepes, 150 mM NaCl, pH 7.4; IL-23 4.9 μM in the cell, MA12 53.2 μM in the syringe; one binding site model; apparent.

B1: IL-23 subunit alpha (p19), as in the recombinant human IL-23 of the crystal structure (natural protein, UniProt Q9NPF7 20-189, looked up)
chain: RAVPGGSSPAWTQCQQLSQKLCTLAWSAHPLVGHMDLREEGDEETTNDVPHIQCGDGCDPQGLRDNSQFCLQRIHQGLIFYEKLLGSDIFTGEPSLLPDSPVGQLHASLLGLSQLLQPEGHHWETQQIPSLSPSQPWQRLLLRFKILRSLQAFVAVAARVFAHGAATLSP
modifications: N-linked glycans limited by kifunensine and trimmed with EndoH
notes: signal peptide in the construct; IL-23 subunit alpha (p19), human, residues 1-189, cDNA as NCBI NM_016584.2; residue numbers as in UniProt; The p19 chain of m3, written alone for the pairs of the crystal structure; also called IL-23 p19; source: HEK-293T, co-transfected with p40, purified as IL-23 (Talon IMAC, SEC)
As for B1, the binding result in assay [1] is listed as “binds”.

B2: MA12_B2fC Alphabody (His-tag removed, cysteine blocked) (designed binder)
chain: SIQEIQKEIAQIQAVIAGIQKYIYTMTGGSGGGSGGGSGGGSGMSIEEIQKQIAAIQCQIAAIQKQIYAMTGGSGGGSGGGSGGGSGMSIEEIQKQIAAIQEQILAIYKQIMAMVT
modifications: free cysteine blocked with iodoacetamide
For the molecule B2, in assay [2], the koff amounted to 0.000122 s⁻¹. In addition, in assay [3], the Kd was found to be 0.463 nM. Moreover, in assay [4], the Kd is 0.35 nM and the stoichiometry N is 1.
